B1: FLII (other, Homo sapiens, UniProt Q13045-2 1-1214, looked up)
chain: MEATGVLPFVRGVDLSGNDFKGGYFPENVKAMTSLRWLKLNRTGLCYLPEELAALQKLEHLSVSHNNLTTLHGELSSLPSLRAIVARANSLKNSGVPDDIFKLDDLSVLDLSHNQLTECPRELENAKNMLVLNLSHNRQLPAMTALQTLHLRSTQRTQSNLPTSLEGLSNLADVDLSCNDLTRVPECLYTLPSLRRLNLSSNQITELSLCIDQWVHVETLNLSRNQLTSLPSAICKLSKLKKLYLNSNKLDFDGLPSGIGKLTNLEEFMAANNNLELVPESLCRCPKLRKLVLNKNHLVTLPEAIHFLTEIEVLDVRENPNLVMPPKPADRAAEWYNIDFSLQNQLRLAGASPATVAAAAAGSGPKDPMARKMRLRRRKDSAQDDQAKQVLKGMSDVAQEKNKKQEESADARAPSGKVRRWDQGLEKPRLDYSEFFTEDVGQLPGLTIWQIENFVPVLVEEAFHGKFYEADCYIVLKTFLDDSGSLNWEIYYWIGGEATLDKKACSAIHAVNLRNYLGAECRTVREEMGDESEEFLQVFDNDISYIEGGTASGFYTVEDTHYVTRMYRVYGKKNIKLEPVPLKGTSLDPRFVFLLDRGLDIYVWRGAQATLSSTTKARLFAEKINKNERKGKAEITLLVQGQELPEFWEALGGEPSEIKKHVPEDFWPPQPKLYKVGLGLGYLELPQINYKLSVEHKQRPKVELMPRMRLLQSLLDTRCVYILDCWSDVFIWLGRKSPRLVRAAALKLGQELCGMLHRPRHATVSRSLEGTEAQVFKAKFKNWDDVLTVDYTRNAEAVLQSPGLSGKVKRDAEKKDQMKADLTALFLPRQPPMSLAEAEQLMEEWNEDLDGMEGFVLEGKKFARLPEEEFGHFYTQDCYVFLCRYWVPVEYEEEEKKEDKEEKAEGKEGEEATAEAEEKQPEEDFQCIVYFWQGREASNMGWLTFTFSLQKKFESLFPGKLEVVRMTQQQENPKFLSHFKRKFIIHRGKRKAVQGAQQPSLYQIRTNGSALCTRCIQINTDSSLLNSEFCFILKVPFESEDNQGIVYAWVGRASDPDEAKLAEDILNTMFDTSYSKQVINEGEEPENFFWVGIGAQKPYDDDAEYMKHTRLFRCSNEKGYFAVTEKCSDFCQDDLADDDIMLLDNGQEVYMWVGTQTSQVEIKLSLKACQVYIQHMRSKEHERPRRLRLVRKGNEQHAFTRCFHAWSAFCKALA
notes: Endogenous protein found by proximity labelling/MS; also called Protein flightless-1 homolog
B2: MAP4K4 (enzyme, Homo sapiens, UniProt O95819-4 2-1165, looked up)
chain: ANDSPAKSLVDIDLSSLRDPAGIFELVEVVGNGTYGQVYKGRHVKTGQLAAIKVMDVTEDEEEEIKLEINMLKKYSHHRNIATYYGAFIKKSPPGHDDQLWLVMEFCGAGSITDLVKNTKGNTLKEDWIAYISREILRGLAHLHIHHVIHRDIKGQNVLLTENAEVKLVDFGVSAQLDRTVGRRNTFIGTPYWMAPEVIACDENPDATYDYRSDLWSCGITAIEMAEGAPPLCDMHPMRALFLIPRNPPPRLKSKKWSKKFFSFIEGCLVKNYMQRPSTEQLLKHPFIRDQPNERQVRIQLKDHIDRTRKKRGEKDETEYEYSGSEEEEEEVPEQEGEPSSIVNVPGESTLRRDFLRLQQENKERSEALRRQQLLQEQQLREQEEYKRQLLAERQKRIEQQKEQRRRLEEQQRREREARRQQEREQRRREQEEKRRLEELERRRKEEEERRRAEEEKRRVEREQEYIRRQLEEEQRHLEVLQQQLLQEQAMLLHDHRRPHPQHSQQPPPPQQERSKPSFHAPEPKAHYEPADRAREVPVRTTSRSPVLSRRDSPLQGSGQQNSQAGQRNSTSIEPRLLWERVEKLVPRPGSGSSSGSSNSGSQPGSHPGSQSGSGERFRVRSSSKSEGSPSQRLENAVKKPEDKKEVFRPLKPAGEVDLTALAKELRAVEDVRPPHKVTDYSSSSEESGTTDEEDDDVEQEGADESTSGPEDTRAASSLNLSNGETESVKTMIVHDDVESEPAMTPSKEGTLIVRQTQSASSTLQKHKSSSSFTPFIDPRLLQISPSSGTTVTSVVGFSCDGMRPEAIRQDPTRKGSVVNVNPTNTRPQSDTPEIRKYKKRFNSEILCAALWGVNLLVGTESGLMLLDRSGQGKVYPLINRRRFQQMDVLEGLNVLVTISGKKDKLRVYYLSWLRNKILHNDPEVEKKQGWTTVGDLEGCVHYKVVKYERIKFLVIALKSSVEVYAWAPKPYHKFMAFKSFGELVHKPLLVDLTVEEGQRLKVIYGSCAGFHAVDVDSGSVYDIYLPTHVRKNPHSMIQCSIKPHAIIILPNTDGMELLVCYEDEGVYVNTYGRITKDVVLQWGEMPTSVAYIRSNQTMGWGEKAIEIRSVETGHLDGVFMHKRAQRLKFLCERNDKVFFASVRSGGSSQVYFMTLGRTSLLSW
notes: Endogenous protein found by proximity labelling/MS
B3: SPTLC1 (enzyme, Homo sapiens, UniProt O15269 1-473, looked up)
chain: MATATEQWVLVEMVQALYEAPAYHLILEGILILWIIRLLFSKTYKLQERSDLTVKEKEELIEEWQPEPLVPPVPKDHPALNYNIVSGPPSHKTVVNGKECINFASFNFLGLLDNPRVKAAALASLKKYGVGTCGPRGFYGTFDVHLDLEDRLAKFMKTEEAIIYSYGFATIASAIPAYSKRGDIVFVDRAACFAIQKGLQASRSDIKLFKHNDMADLERLLKEQEIEDQKNPRKARVTRRFIVVEGLYMNTGTICPLPELVKLKYKYKARIFLEESLSFGVLGEHGRGVTEHYGINIDDIDLISANMENALASIGGFCCGRSFVIDHQRLSGQGYCFSASLPPLLAAAAIEALNIMEENPGIFAVLKEKCGQIHKALQGISGLKVVGESLSPAFHLQLEESTGSREQDVRLLQEIVDQCMNRSIALTQARYLEKEEKCLPPPSIRVVVTVEQTEEELERAASTIKEVAQAVLL
notes: Endogenous protein found by proximity labelling/MS; also called Serine palmitoyltransferase 1
B4: ALDH1B1 (enzyme, Homo sapiens, UniProt P30837 18-517, looked up)
chain: RYSSAAALPSPILNPDIPYNQLFINNEWQDAVSKKTFPTVNPTTGEVIGHVAEGDRADVDRAVKAAREAFRLGSPWRRMDASERGRLLNRLADLVERDRVYLASLETLDNGKPFQESYALDLDEVIKVYRYFAGWADKWHGKTIPMDGQHFCFTRHEPVGVCGQIIPWNFPLVMQGWKLAPALATGNTVVMKVAEQTPLSALYLASLIKEAGFPPGVVNIITGYGPTAGAAIAQHVDVDKVAFTGSTEVGHLIQKAAGDSNLKRVTLELGGKSPSIVLADADMEHAVEQCHEALFFNMGQCCCAGSRTFVEESIYNEFLERTVEKAKQRKVGNPFELDTQQGPQVDKEQFERVLGYIQLGQKEGAKLLCGGERFGERGFFIKPTVFGGVQDDMRIAKEEIFGPVQPLFKFKKIEEVVERANNTRYGLAAAVFTRDLDKAMYFTQALQAGTVWVNTYNIVTCHTPFGGFKESGNGRELGEDGLKAYTEVKTVTIKVPQKNS
notes: Endogenous protein found by proximity labelling/MS; also called Aldehyde dehydrogenase X, mitochondrial
B5: CPEB4 (other, Homo sapiens, UniProt Q17RY0-2 1-712, looked up)
chain: MGDYGFGVLVQSNTGNKSAFPVRFHPHLQPPHHHQNATPSPAAFINNNTAANGSSAGSAWLFPAPATHNIQDEILGSEKAKSQQQEQQDPLEKQQLSPSPGQEAGILPETEKAKSEENQGDNSSENGNGKEKIRIESPVLTGFDYQEATGLGTSTQPLTSSASSLTGFSNWSAAIAPSSSTIINEDASFFHQGGVPAASANNGALLFQNFPHHVSPGFGGSFSPQIGPLSQHHPHHPHFQHHHSQHQQQRRSPASPHPPPFTHRNAAFNQLPHLANNLNKPPSPWSSYQSPSPTPSSSWSPGGGGYGGWGGSQGRDHRRGLNGGITPLNSISPLKKNFASNHIQLQKYARPSSAFAPKSWMEDSLNRADNIFPFPDRPRTFDMHSLESSLIDIMRAENDTIKARTYGRRRGQSSLFPMEDGFLDDGRGDQPLHSGLGSPHCFSHQNGERVERYSRKVFVGGLPPDIDEDEITASFRRFGPLIVDWPHKAESKSYFPPKGYAFLLFQDESSVQALIDACIEEDGKLYLCVSSPTIKDKPVQIRPWNLSDSDFVMDGSQPLDPRKTIFVGGVPRPLRAVELAMIMDRLYGGVCYAGIDTDPELKYPKGAGRVAFSNQQSYIAAISARFVQLQHGEIDKRVEVKPYVLDDQLCDECQGARCGGKFAPFFCANVTCLQYYCEYCWAAIHSRAGREFHKPLVKEGGDRPRHISFRWN
notes: as for B2
B6: SARS2 (enzyme, Homo sapiens, UniProt Q9NP81 35-518, looked up)
chain: TTEKRNRNLLYEYAREGYSALPQLDIERFCACPEEAAHALELRKGELRSADLPAIISTWQELRQLQEQIRSLEEEKAAVTEAVRALLANQDSGEVQQDPKYQGLRARGREIRKELVHLYPREAQLEEQFYLQALKLPNQTHPDVPVGDESQARVLHMVGDKPVFSFQPRGHLEIGEKLDIIRQKRLSHVSGHRSYYLRGAGALLQHGLVNFTFNKLLRRGFTPMTVPDLLRGAVFEGCGMTPNANPSQIYNIDPARFKDLNLAGTAEVGLAGYFMDHTVAFRDLPVRMVCSSTCYRAETNTGQEPRGLYRVHHFTKVEMFGVTGPGLEQSSQLLEEFLSLQMEILTELGLHFRVLDMPTQELGLPAYRKFDIEAWMPGRGRFGEVTSASNCTDFQSRRLHIMFQTEAGELQFAHTVNATACAVPRLLIALLESNQQKDGSVLVPPALQSYLGTDRITAPTHVPLQYIGPNQPRKPGLPGQPAVS
notes: Endogenous protein found by proximity labelling/MS; also called Serine -- tRNA ligase, mitochondrial

The binders below were run against T1, RNF213-TurboID (Homo sapiens (Human), UniProt Q63HN8 1-5207) (assay: TurboID proximity biotinylation, streptavidin recovery, MS, SAINT express).
T1 construct: Recombined into HeLa FlpIn-TRex RNF213-KO cells; proximity-labelling bait; also called C-Turbo; 3×-FLAG-RNF213-TurboID; not shown: 3×-FLAG tag; TurboID biotin ligase at the C-terminus
T1 sequence (Q63HN8 whole entry N1045D): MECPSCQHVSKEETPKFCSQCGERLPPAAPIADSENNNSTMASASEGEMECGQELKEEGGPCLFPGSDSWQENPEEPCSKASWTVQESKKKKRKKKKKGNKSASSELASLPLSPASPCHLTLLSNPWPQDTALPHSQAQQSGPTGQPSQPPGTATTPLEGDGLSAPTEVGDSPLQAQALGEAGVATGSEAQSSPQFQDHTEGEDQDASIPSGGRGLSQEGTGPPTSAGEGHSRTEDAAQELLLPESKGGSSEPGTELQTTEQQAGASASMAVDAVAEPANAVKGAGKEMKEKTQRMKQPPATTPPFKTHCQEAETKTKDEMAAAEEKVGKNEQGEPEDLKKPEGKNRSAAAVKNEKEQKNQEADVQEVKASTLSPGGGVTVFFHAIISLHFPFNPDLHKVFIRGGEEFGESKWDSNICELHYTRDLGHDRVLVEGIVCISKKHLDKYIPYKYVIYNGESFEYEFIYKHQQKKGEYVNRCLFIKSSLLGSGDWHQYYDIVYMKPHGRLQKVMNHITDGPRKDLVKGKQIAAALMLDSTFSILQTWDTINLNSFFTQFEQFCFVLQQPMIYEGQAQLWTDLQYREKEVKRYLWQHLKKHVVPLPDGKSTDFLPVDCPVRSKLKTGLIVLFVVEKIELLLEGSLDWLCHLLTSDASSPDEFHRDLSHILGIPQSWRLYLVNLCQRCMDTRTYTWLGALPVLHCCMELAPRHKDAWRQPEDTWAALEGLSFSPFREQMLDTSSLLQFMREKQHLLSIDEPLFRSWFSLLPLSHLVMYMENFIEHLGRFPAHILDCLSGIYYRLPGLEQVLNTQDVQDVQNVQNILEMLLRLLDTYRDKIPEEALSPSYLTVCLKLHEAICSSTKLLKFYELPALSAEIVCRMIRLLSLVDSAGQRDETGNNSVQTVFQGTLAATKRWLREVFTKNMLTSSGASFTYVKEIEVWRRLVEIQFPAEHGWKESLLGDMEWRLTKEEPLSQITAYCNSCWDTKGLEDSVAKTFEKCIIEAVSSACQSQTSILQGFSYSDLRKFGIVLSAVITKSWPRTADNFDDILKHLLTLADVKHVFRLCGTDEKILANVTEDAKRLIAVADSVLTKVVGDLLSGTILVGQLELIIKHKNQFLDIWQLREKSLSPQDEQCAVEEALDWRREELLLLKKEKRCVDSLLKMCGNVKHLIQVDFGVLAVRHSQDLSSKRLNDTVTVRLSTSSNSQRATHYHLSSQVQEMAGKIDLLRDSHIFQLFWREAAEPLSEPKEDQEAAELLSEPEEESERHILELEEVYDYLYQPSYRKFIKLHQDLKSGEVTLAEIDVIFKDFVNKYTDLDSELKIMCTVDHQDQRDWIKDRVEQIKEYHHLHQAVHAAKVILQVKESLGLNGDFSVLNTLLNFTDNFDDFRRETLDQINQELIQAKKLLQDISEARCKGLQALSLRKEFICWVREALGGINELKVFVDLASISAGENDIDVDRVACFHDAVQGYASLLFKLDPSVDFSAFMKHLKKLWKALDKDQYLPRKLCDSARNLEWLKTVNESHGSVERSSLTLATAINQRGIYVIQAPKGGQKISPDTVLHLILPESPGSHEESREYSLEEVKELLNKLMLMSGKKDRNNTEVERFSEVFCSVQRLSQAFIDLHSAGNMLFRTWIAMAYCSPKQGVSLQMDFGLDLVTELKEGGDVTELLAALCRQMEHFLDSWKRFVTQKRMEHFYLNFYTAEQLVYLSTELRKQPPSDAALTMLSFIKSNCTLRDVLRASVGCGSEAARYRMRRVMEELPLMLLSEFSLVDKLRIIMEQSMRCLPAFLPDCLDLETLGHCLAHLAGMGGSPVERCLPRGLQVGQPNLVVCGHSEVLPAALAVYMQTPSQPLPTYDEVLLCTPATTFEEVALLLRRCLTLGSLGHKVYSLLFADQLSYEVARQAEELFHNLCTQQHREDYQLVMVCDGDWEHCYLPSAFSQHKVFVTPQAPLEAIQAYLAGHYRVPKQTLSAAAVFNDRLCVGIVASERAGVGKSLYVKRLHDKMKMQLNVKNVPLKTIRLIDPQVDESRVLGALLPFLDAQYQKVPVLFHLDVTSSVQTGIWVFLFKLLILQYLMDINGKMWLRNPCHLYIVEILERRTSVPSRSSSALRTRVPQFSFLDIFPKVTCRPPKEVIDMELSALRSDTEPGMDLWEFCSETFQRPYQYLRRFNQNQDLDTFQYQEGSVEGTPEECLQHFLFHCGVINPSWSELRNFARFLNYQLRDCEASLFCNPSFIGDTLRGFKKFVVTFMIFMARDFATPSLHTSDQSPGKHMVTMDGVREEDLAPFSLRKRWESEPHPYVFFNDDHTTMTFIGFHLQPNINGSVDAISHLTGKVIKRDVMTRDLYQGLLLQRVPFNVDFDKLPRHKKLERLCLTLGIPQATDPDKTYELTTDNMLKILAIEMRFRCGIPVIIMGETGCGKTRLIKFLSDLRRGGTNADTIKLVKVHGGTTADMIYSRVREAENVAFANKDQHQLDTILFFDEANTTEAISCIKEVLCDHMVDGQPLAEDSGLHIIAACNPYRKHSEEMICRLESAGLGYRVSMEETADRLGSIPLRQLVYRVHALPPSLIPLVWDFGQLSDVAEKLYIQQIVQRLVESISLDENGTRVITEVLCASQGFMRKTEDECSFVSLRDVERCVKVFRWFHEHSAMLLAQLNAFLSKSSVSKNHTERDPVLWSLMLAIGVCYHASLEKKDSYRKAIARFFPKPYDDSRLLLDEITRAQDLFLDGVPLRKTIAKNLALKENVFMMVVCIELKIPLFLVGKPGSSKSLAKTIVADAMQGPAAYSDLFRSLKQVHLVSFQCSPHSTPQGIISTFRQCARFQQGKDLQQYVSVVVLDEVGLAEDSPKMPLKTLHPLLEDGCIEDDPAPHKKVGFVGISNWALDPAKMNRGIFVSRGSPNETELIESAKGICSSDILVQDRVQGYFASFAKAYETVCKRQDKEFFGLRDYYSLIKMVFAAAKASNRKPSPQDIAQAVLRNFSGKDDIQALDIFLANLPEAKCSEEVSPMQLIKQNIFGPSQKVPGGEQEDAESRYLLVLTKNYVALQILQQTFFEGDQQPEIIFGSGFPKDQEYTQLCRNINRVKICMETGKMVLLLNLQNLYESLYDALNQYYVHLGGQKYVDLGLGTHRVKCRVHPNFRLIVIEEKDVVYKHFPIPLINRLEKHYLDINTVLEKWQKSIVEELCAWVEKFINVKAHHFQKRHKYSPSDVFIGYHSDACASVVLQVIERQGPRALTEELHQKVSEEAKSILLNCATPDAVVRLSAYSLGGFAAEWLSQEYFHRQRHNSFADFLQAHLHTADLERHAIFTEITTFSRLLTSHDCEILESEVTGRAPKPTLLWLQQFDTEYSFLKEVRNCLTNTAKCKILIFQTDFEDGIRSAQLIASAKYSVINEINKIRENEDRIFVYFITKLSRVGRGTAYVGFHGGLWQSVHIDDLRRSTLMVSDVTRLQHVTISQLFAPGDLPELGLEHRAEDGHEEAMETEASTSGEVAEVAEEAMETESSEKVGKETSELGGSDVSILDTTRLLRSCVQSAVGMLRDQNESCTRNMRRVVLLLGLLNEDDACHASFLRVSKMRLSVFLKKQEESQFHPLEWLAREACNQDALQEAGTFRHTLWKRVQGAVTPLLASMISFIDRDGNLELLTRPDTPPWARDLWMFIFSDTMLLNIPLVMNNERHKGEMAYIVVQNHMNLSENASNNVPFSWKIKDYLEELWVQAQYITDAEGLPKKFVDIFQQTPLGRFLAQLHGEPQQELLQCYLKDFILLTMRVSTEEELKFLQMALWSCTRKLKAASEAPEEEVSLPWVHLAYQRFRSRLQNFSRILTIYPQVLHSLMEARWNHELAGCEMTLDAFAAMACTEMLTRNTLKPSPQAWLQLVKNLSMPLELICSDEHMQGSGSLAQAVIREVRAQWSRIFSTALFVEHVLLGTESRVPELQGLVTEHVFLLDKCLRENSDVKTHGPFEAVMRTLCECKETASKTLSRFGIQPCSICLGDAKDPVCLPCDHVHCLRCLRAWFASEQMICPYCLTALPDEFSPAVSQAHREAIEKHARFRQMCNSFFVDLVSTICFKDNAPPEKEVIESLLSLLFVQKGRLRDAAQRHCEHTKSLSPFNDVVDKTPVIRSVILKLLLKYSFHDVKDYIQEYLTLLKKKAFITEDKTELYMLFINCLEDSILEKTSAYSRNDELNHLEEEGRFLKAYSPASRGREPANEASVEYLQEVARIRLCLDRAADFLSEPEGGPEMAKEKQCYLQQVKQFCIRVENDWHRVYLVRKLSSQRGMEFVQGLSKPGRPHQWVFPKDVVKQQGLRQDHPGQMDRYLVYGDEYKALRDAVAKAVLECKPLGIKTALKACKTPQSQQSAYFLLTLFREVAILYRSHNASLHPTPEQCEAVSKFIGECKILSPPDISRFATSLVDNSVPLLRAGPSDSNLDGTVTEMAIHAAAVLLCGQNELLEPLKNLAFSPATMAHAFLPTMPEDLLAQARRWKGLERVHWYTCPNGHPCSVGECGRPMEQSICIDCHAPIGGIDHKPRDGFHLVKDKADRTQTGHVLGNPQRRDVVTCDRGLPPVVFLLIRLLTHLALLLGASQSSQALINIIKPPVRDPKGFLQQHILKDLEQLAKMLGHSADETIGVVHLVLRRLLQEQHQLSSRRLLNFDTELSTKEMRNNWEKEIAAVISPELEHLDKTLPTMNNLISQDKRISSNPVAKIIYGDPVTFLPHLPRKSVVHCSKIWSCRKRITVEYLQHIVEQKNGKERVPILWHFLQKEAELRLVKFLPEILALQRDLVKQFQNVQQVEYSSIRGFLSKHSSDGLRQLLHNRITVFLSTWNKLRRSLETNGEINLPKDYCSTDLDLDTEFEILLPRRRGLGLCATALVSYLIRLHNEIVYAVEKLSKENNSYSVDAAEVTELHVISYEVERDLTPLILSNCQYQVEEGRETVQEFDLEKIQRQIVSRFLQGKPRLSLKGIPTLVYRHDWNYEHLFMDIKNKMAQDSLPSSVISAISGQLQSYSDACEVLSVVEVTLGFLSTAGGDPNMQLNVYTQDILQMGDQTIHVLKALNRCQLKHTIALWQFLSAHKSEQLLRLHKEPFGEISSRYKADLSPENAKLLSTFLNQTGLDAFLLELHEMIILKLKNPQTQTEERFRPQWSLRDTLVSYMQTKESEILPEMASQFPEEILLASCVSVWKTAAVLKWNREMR
Source text: Proteins were ranked as potential binding partners by using the SAINT express algorithm³⁶ Immunoblotting (FIG. 9A) and silver staining (FIG. 9B) confirmed that similar amounts of each sample were submitted for analysis. Relatively few proteins labelled by N-Turbo were labelled to an extent greater than their labeling by Control-Turbo (FIG. 9C). […] Among the other top candidates were the major K63-deubiquitinase and NF-κB regulator CYLD and its interacting protein SPATA2 (FIG. 2B, orange-colored arrows). […] Other top C-Turbo interactors included proteins involved in VEGF signaling, which is induced in hypoxia (FLII, MYOF^{39,40}), inflammation and atherosclerosis (MAP4K4, SPTLC1^{41,42}), lipotoxicity (SPTLC1, ALDH1B1^{43,44}), ischemia response (CPEB4⁴⁵), and stroke (SARS2⁴⁶). Top N-Turbo interactors included CYP51A1, which plays a crucial role in cholesterol metabolism and atherosclerosis⁴⁷.
Cells were cultured in standard media but with 10% tetracycline (Tet)-free FBS (Clonetech) for at least 1 week. Tet-free/biotin-free FBS was generated by incubating Tet-free FBS with sterile streptavidin beads overnight followed by centrifugation to remove the beads. N-Turbo, C-Turbo, and Turbo proteins were induced by adding 1 μg/ml Dox to cells for 36 hours. For the last ten min. of incubation, 500 μM of biotin was added to the medium. Labelling reactions was terminated by removing the medium and adding ice-cold PBS to plates, which were kept on ice. Lysates were collected in RIPA buffer without Na-deoxycholate, and biotin-labelled proteins were collected by incubating with high-capacity streptavidin agarose beads for 4 hours at 4° C.
B1: binds. B2: binds. B3: binds. B4: binds. B5: binds. B6: binds.

From patent US20250025478A1 (published 2025)
